Results on one protein are retold here after PMC9898218 (Journal of materials chemistry. B, 2023).

The data set concerns the molecule itself. Briefly: SEC. (In gel filtration, larger molecules generally elute earlier.)

B1: Cowpea chlorotic mottle virus (CCMV) coat protein (natural protein)
chain: MSTVGTGKLTRAQRRAAARKNKRNTRVVQPVIVEPIASGQGKAIKAWTGYSVSKWTASCAAAEAKVTSAITISLPNELSSERNKQLKVGRVLLWLGLLPSVSGTVKSCVTETQTTAAASFQVALAVADNSKDVVAAMYPEAFKGITLEQLTADLTIYLYSSAALTEGDVIVHLEVEHVRPTFDDSFTPVY
Take B1: the binding result is on record as “binds”.
